Data published in patent US8173131B2, “Compositions and methods for modulating RSV infection and immunity” (PerkinElmer Health Sciences, Inc., priority 2000, dated 2012).

B1: GHIS: purified recombinant soluble polyhistidine-tagged G glycoprotein from transfected Vero cells (protein)
chain: NHKVTPTTAIIQDATSQIKNTTPTYLTQNPQLGISPSNPSEITSQITTILASTTPGVKSTLQSTTVKTKNTTTTQTQPSKPTTKQRQNKPPSKPNNDFHFEVFNFVPCSICSNNPTCWAICKRIPNKKPGKKTTTKPTKKPTLKTTKKDPKPQTTKSKEVPTTKPTEEPTINTTKTNIITTLLTSNTTGNPELTSQMETFHSTSSEGNPSPSQVSTTSEYPSQPSSPPNTPRQ
modifications: left off: small tags and cut ends
notes: purified recombinant soluble polyhistidine-tagged G glycoprotein from transfected Vero cells

Columns and labels:
[1] = target: T1, CX3CR1 (293-CX3CR1 cells) (Homo sapiens, UniProt P49238); assay: G glycoprotein and Fkn binding to 293-CX3CR1 cells by flow cytometry; conditions: for binding to 293-CX3CR1 cells: wheat germ lectin column fraction (G, F glycoprotein) or purified recombinant polyhistidine-tagged G glycoprotein
T1 construct: expressed in transfected cells
T1 sequence (P49238 1-355): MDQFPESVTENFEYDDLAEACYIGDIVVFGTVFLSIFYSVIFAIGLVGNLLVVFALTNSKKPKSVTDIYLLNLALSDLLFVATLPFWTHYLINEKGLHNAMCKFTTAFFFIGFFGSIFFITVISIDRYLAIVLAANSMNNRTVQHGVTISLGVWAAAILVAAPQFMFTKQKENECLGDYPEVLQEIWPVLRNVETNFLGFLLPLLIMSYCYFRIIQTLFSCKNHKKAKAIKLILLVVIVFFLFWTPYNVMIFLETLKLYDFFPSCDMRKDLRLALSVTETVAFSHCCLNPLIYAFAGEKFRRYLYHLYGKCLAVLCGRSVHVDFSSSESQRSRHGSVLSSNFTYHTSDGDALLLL
Method: (§1) Purified G glycoprotein was examined for binding to 293-CX3CR1 cells^33. A pcDNA 3.1 plasmid containing the CX3CR1 gene and a neomycin resistance gene was used to stably transfect human embryonic kidney (HEK) cells. Neomycin resistance was used for selection and maintenance of plasmid transfection of human embryonic kidney cells.
All binding studies were done on ice and either G glycoprotein or human Fkn (R&D Diagnostics, Minneapolis, […]) containing 1% bovine serum albumin (Sigma) and incubated with the 293-CX3CR1 cells or 293 control cells for 30 min at 4° C. […] For inhibition studies, 100 pM-1 μM human Fkn or G glycoprotein was preincubated with the cells for 30 min at 4° C. Without washing, 100 pM of either Fkn or G glycoprotein was added and incubated for 30 min at 4° C. The cells were washed, blocked with FcγRIII blocking antibody (HB197) for 30 min on ice, washed and stained as appropriate with either an anti-G glycoprotein monoclonal antibody cocktail (132-5B, 132-5G, 130-2G, 232-IF) or a biotinylated anti-G glycoprotein monoclonal antibody cocktail (130-2G, 131-2G) or anti-Fkn monoclonal antibody (51637.11; R&D Diagnostics). Concentrations of 1 μg of anti-G glycoprotein monoclonal antibody (131-2G)^34, rabbit anti-CX3CR1 sera^33, and anti-CX3CR1 monoclonal antibody containing 10 μg/ml heparin were used in all experiments. […] Staining was detected with absorbed FITC-goat anti-mouse (H & L chain) monoclonal antibody (PharMingen, San Diego, Calif.) or streptavidin-PE (PharMingen) using flow cytometry (FACScan, Becton-Dickinson, Mountain View, Calif.). A 76 amino acid ^125I-Fkn polypeptide comprising the […] (NEN, Boston, Mass.) was used in radioligand studies^33. As a control, the void volume following purified G glycoprotein passaged over an anti-G glycoprotein antibody (130-2G) affinity column was examined by flow cytometry for binding to either 293 or 293-CX3CR1 cells.
(§2) The receptor for Fkn, CX3CR1, was previously identified and characterized using anti-CX3CR1 rabbit antiserum and CX3CR1-transfected human embryonic kidney cells (293-CX3CR1 cells)^33.
The percent Fkn-maximum binding was calculated using the equation: [% G (or Fkn) 293-CX3CR1]-[% G (or Fkn) 293]/[% Fkn (10 nM) 293-CX3CR1]-[% Fkn (10 nM) 293], where G=G glycoprotein, Fkn=fractalkine, 293-CX3CR1=CX3CR1-transfected 293, 293=untransfected 293. The concentration of G glycoprotein was estimated using a molecular weight of 90 kD.

[2] = system: 293 cells; assay: G glycoprotein and Fkn binding to untransfected 293 control cells by flow cytometry; set-up: species or system human; conditions: for binding to 293 cells: wheat germ lectin column fraction (G, F glycoprotein) or purified recombinant polyhistidine-tagged G glycoprotein
Method: as §1
All binding studies were done on ice and either G glycoprotein or human Fkn (R&D Diagnostics, Minneapolis, Minn.) were diluted between 1 nM-100 nM in PBS (GIBCO) containing 1% bovine serum albumin (Sigma) and incubated with the 293-CX3CR1 cells or 293 control cells for 30 min at 4° C. […] For inhibition studies, 100 pM-1 μM human Fkn or G glycoprotein was preincubated with the cells for 30 min at 4° C. Without washing, 100 pM of either Fkn or G glycoprotein was added and incubated for 30 min at 4° C. The cells were washed, blocked with FcγRIII blocking antibody (HB197) for 30 min on ice, washed and stained as appropriate with either an anti-G glycoprotein monoclonal antibody cocktail (132-5B, 132-5G, 130-2G, 232-IF) or a biotinylated anti-G glycoprotein monoclonal antibody cocktail (130-2G, 131-2G) or anti-Fkn monoclonal antibody (51637.11; R&D Diagnostics). Concentrations of 1 μg of anti-G glycoprotein monoclonal antibody (131-2G)^34, rabbit anti-CX3CR1 sera^33, and anti-CX3CR1 monoclonal antibody containing 10 μg/ml heparin were used in all experiments. […] Staining was detected with absorbed FITC-goat anti-mouse (H & L chain) monoclonal antibody (PharMingen, San Diego, Calif.) or streptavidin-PE (PharMingen) using flow cytometry (FACScan, Becton-Dickinson, Mountain View, Calif.). A 76 amino acid ^125I-Fkn polypeptide comprising the […] (NEN, Boston, Mass.) was used in radioligand studies^33. As a control, the void volume following purified G glycoprotein passaged over an anti-G glycoprotein antibody (130-2G) affinity column was examined by flow cytometry for binding to either 293 or 293-CX3CR1 cells.
as §2

[3] = system: G glycoprotein binding to 293-CX3CR1 cells; set-up: species or system human; conditions: heparin 5 μg/ml alone
Method: All binding studies were done on ice and either G glycoprotein or human Fkn (R&D Diagnostics, Minneapolis, Minn.) were diluted between 1 nM-100 nM in PBS (GIBCO) containing 1% bovine serum albumin (Sigma) and incubated with the 293-CX3CR1 cells or 293 control cells for 30 min at 4° C. […] Without washing, 100 pM of either Fkn or G glycoprotein was added and incubated for 30 min at 4° C. The cells were washed, blocked with FcγRIII blocking antibody (HB197) for 30 min on ice, washed and stained as appropriate with either an anti-G glycoprotein monoclonal antibody cocktail (132-5B, 132-5G, 130-2G, 232-IF) or a biotinylated anti-G glycoprotein monoclonal antibody cocktail (130-2G, 131-2G) or anti-Fkn monoclonal antibody (51637.11; R&D Diagnostics). Concentrations of 1 μg of anti-G glycoprotein monoclonal antibody (131-2G)^34, rabbit anti-CX3CR1 sera^33, and anti-CX3CR1 monoclonal antibody containing 10 μg/ml heparin were used in all experiments. […] Staining was detected with absorbed FITC-goat anti-mouse (H & L chain) monoclonal antibody (PharMingen, San Diego, Calif.) or streptavidin-PE (PharMingen) using flow cytometry (FACScan, Becton-Dickinson, Mountain View, Calif.). A 76 amino acid ^125I-Fkn polypeptide comprising the […] (NEN, Boston, Mass.) was used in radioligand studies^33. As a control, the void volume following purified G glycoprotein passaged over an anti-G glycoprotein antibody (130-2G) affinity column was examined by flow cytometry for binding to either 293 or 293-CX3CR1 cells.
For peptide inhibition studies, a series of G glycoprotein peptides were identified in the amino acid sequence of the A2 strain of RSV (GENBANK, attachment protein locus 1912305, Table 4). The peptides were synthesized using a simultaneous, multiple solid-phase peptide synthesis method on a peptide synthesizer (Perkin-Elmer Applied Biosystems, Berkeley, Calif.), and tested for homogeneity by reverse-phase liquid chromatography and capillary electrophoresis (www.biotech.cdc.gov/protein/methods). Inhibition assays were performed as described for the binding studies above.
To determine if G glycoprotein bound 293-CX3CR1 cells via CX3CR1, the ability of four reagents (anti-CX3CR1 rabbit antiserum, anti-CX3CR1 monoclonal antibody (2A9-1), Fkn and a 76 amino acid 125-I-Fkn polypeptide containing the CX3C domain) that bind to CX3CR1 to block G glycoprotein binding to 293-CX3CR1 cells was examined. In addition, to determine if binding of G glycoprotein to 293-CX3CR1 cells was dependent upon the CX3C motif, G glycoprotein peptides with a single residue insertion (Δ+1) or deletion (Δ−1) in the CX3C motif and also peptides that lacked or included the CX3C motif (Table 4) were generated. This panel of peptides was analyzed for their ability to block G glycoprotein or Fkn binding to 293-CX3CR1 cells.
Inhibition of Fkn and G glycoprotein binding to 293-CX3CR1 cells by treatment with monoclonal antibodies to G glycoprotein or CX3CR1, or treatment with G glycoprotein, Fkn, or G glycoprotein peptides in the presence or absence of heparin as described in Methods. […] The concentration of G glycoprotein was estimated using a molecular weight of 90 kD.

[4] = system: RSV; assay: RSV plaque reduction assay on Vero cells (Example 1); format: cell-based, RSV/A2; conditions: 5 μg/ml
Method: Dilutions of Fkn (R&D systems), SDF-1 α (R&D systems), G glycoprotein, heparin (Sigma), G glycoprotein peptides and anti-CX3CR1 antibody were made in serum-free Dulbecco's Modified Eagle's Media (DMEM; GIBCO) containing 1% BSA (Sigma) and preincubated with the Vero cells for 1 h at 37° C. 50 μg of anti-CX3CR1 antibody or heat-inactivated (56° C., 30 min) normal rabbit sera (control) were used in all experiments. […] Dilutions of RSV were made in serum-free DMEM (GIBCO) and added to pretreated Vero cells for 2 h at 37° C. Following virus infection, DMEM (GIBCO) containing 10% FBS (Hyclone, Logan, Utah) was added to the wells. Plaques were enumerated using immunostaining for F and G glycoproteins using biotinylated monoclonal antibodies 131-2A (anti-F glycoprotein) and 130-2G (anti-G glycoprotein) as described^45.
RSV plaque reduction following treatment with G glycoprotein, Fkn, G glycoprotein peptides, anti-CX3CR1 antibody, SDF-1-α and/or heparin as described in Methods. Percent inhibition was determined from the mean plaque forming units (pfu) of treated Vero cells over saline-treated Vero cells using a dilution of RSV that would produce 40-80 pfu. p-values were determined using unpaired two-tailed analysis where p<0.05 is significant. The concentration of G glycoprotein was estimated using a molecular weight of 90 kD.

[5] = system: RSV; assay: RSV plaque reduction by small molecule peptide inhibitors on Vero cells (Example II); format: cell-based, RSV/A2; conditions: heparin alone, 5 μg/ml
Method: Vero cells were treated with PBS, RT33, RT34, Δ+1, Δ−1 and EYp1 peptides (100 μm) in the presence (B) or absence of heparin (A) (5 μg/ml). Percentage inhibition was determined by dividing the mean plaque forming units (PFU) of treated Vero cells by the mean PFU of PBS-treated Vero cells.
Different concentrations of the G glycoprotein peptides and/or 5 μg/ml heparin (Sigma) were diluted in Dulbecco's phosphate buffered saline (D-PBS; GIBCO) and added to Vero cell monolayers for 1 h at 37° C. Pre-treated Vero cells were infected with 10^6 PFU of RSV/A2 diluted in serum-free DMEM (GIBCO) for 2 h at 37° C., after which DMEM (GIBCO) containing 10% FBS (Hyclone, Logan, Utah) was added, and the infected cells incubated at 37° C. for 3-4 days. Plaques were enumerated by immunostaining with monoclonal antibodies against the G and F glycoproteins (130-2G and 131-2A, respectively), as described (54,55).

[6] = target: T2, Fkn binding to 293-CX3CR1 cells (Homo sapiens, UniProt P49238); conditions: heparin 5 μg/ml alone
T2 construct: host or cells: HEK 293 cells stably transfected with CX3CR1

[7] = 10 nM ligand, representative experiment, FIG. 1

| Molecule | binding to 293-CX3CR1 cells [1] | binding to 293 cells [2] | Range of Inhibition (%) of G glycoprotein binding [3] | plaque inhibition (%) [4] | inhibition of plaque formation [5] | Range of Inhibition (%) of Fkn binding [6] | percent positive staining of CX3CR1-293 cells [1, 7] | percent positive staining of 293 cells [2, 7] |
| --- | --- | --- | --- | --- | --- | --- | --- | --- |
| F glycoprotein: RSV F (fusion) glycoprotein in wheat germ lectin column fraction | 12% | 8% | – | – | – | – | – | – |
| Heparin [reference compound] | – | – | 78-84% | 66% | 80% | 57-65% | – | – |
| B1 | 68-88% | 7-12% | – | – | – | – | 68% | 12% |
